Data taken from article PMC3594540 (Nature structural & molecular biology, 2013).

How the values were obtained:
Assay in all cases: cell-based or functional assay
PLCβ3 L876A = PLCβ3 L876A (human, UniProt Q01970 10-1234, L876A)
PLCβ3 L876A EEE = biological target: T1, PLCβ3 L876A EEE (human, UniProt Q01970)
T1 chain: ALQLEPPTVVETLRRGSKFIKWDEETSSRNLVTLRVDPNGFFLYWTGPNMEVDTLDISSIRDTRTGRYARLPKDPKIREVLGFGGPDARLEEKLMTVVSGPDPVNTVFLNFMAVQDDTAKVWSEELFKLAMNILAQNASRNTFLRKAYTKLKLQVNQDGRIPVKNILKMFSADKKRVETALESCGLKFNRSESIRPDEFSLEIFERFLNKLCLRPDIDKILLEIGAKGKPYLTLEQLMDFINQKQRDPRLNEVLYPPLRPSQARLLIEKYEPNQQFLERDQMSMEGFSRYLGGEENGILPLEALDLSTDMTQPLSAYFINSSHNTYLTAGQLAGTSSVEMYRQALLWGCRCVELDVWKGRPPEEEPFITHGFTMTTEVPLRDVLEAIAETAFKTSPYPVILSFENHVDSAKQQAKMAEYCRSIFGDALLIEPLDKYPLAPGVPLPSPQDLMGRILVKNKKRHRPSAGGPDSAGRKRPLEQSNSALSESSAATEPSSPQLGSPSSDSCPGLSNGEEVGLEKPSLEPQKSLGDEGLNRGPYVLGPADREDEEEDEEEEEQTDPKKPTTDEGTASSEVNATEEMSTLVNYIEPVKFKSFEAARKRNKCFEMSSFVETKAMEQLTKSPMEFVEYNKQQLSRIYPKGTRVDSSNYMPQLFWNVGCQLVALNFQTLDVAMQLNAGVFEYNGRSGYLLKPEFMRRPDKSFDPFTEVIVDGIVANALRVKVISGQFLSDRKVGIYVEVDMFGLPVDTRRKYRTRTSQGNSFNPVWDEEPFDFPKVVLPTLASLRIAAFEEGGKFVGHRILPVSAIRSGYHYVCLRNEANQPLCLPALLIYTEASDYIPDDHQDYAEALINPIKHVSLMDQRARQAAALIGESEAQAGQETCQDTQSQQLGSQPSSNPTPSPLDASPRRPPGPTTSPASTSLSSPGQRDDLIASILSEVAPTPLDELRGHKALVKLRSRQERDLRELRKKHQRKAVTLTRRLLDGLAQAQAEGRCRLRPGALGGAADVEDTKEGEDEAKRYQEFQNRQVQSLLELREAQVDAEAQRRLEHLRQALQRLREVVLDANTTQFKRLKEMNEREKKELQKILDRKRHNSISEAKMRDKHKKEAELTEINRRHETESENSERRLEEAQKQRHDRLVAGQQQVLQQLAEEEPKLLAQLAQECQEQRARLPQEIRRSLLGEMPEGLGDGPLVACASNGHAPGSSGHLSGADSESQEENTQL

PLCβ3 T652E = biological target: T2, PLCβ3 T652E (human, UniProt Q01970)
T2 chain: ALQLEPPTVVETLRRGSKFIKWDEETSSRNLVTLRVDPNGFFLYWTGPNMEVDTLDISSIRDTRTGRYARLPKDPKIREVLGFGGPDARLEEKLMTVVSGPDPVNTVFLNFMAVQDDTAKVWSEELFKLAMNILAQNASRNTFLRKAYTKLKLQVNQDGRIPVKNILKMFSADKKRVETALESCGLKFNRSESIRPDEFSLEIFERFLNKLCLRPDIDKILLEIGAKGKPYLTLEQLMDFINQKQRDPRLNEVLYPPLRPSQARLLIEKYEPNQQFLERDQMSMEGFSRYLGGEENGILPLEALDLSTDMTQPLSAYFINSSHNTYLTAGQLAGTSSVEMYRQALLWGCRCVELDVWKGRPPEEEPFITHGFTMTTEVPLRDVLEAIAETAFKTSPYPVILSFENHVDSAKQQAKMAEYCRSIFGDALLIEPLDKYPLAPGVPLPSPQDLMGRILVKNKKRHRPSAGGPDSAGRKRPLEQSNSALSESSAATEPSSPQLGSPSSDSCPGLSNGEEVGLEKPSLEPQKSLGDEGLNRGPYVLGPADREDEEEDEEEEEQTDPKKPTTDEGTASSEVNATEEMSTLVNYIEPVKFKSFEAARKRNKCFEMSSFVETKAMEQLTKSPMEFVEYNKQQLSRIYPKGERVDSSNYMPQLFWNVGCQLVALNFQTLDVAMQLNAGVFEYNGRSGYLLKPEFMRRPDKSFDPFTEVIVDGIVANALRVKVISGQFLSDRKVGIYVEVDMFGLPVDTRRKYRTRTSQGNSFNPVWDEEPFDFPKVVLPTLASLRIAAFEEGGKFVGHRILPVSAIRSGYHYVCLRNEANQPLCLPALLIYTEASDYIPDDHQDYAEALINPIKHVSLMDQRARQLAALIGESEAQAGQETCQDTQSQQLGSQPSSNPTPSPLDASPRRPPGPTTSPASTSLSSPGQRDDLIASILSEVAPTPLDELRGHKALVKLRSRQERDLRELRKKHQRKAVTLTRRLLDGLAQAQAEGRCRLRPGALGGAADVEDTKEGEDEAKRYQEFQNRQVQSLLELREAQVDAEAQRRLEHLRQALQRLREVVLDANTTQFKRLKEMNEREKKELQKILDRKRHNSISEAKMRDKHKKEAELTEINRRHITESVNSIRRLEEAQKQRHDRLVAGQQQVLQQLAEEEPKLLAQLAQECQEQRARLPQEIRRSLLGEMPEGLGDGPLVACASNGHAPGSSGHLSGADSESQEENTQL

B1: murine Gαq (residues 7–359), biotinylated for bead binding (natural protein)
chain: MACCLSEEAKEARRINDEIERQLRRDKRDARRELKLLLLGTGESGKSTFIKQMRIIHGSGYSDEDKRGFTKLVYQNIFTAMQAMIRAMDTLKIPYKYEHNKAHAQLVREVDVEKVSAFENPYVDAIKSLWNDPGIQECYDRRREYQLSDSTKYYLNDLDRVADPSYLPTQQDVLRVRVPTTGIIEYPFDLQSVIFRMVDVGGQRSERRKWIHCFENVTSIMFLVALSEYDQVLVESDNENRMEESKALFRTIITYPWFQNSSVILFLNKKDLLEEKIMYSHLVDYFPEYDGPQRDAQAAREFILKMFVDLNPDSDKIIYSHFTCATDTENIRFVFAAVKDTILQLNLKEYNLV
EC50 of Gαq-stimulated PIP2 hydrolysis ([3H]-IP3 release from liposomes) (PLCβ3 L876A): 19 nM
Max specific activity of Gαq-stimulated PIP2 hydrolysis (liposomes) (PLCβ3 L876A): 6500 nmol IP3/min/nmol PLCβ3
EC50 of Gαq-stimulated PIP2 hydrolysis ([3H]-IP3 release from liposomes) (PLCβ3 L876A EEE): 32 nM
Max specific activity of Gαq-stimulated PIP2 hydrolysis (liposomes) (PLCβ3 L876A EEE): 3900 nmol IP3/min/nmol PLCβ3
EC50 of Gαq-stimulated PIP2 hydrolysis ([3H]-IP3 release from liposomes) (PLCβ3 T652E): 1150 nM
